For one substance, mortality (MTT assay) of lung cancer cells co-infected with MazF and MazE viruses and yield of MazF-encoding adenovirus in HEK293 packaging cells that constitutively express MazE, compared with parental HEK293 cells (orders of magnitude) results are on record in patent publication US20220125824A1.

For the assay, the target named is mCherry-MazF (E. coli MazF ribonuclease fused to the C terminus of mCherry) (E. coli) (UniProt P0AE70). Description: cell-based or functional assay.
Chain of UniProt P0AE70 (P0AE70 whole entry, the tested form may be a part): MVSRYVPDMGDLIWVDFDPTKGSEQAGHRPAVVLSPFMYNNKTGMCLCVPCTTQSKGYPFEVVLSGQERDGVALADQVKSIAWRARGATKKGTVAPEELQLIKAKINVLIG

As to “E. coli antitoxin MazE (from UniProt P0AE72 1-82)”, the mortality (MTT assay) of lung cancer cells co-infected with MazF and MazE viruses at a 1:0.5 MOI ratio worked out at 36%; the yield of MazF-encoding adenovirus in HEK293 packaging cells that constitutively express MazE, compared with parental HEK293 cells (orders of magnitude) was found to be 2.
